From the DeepSol protein solubility set

Assay: soluble on expression in E. coli; label from the status in PepcDB or PDB records

MGSDKIHHHHHHMFSVEQLQAFITTVETGSFSAAARRLNKVQSVVSQHVINLEVDCNILLFDRSGRYPALTEAGEKLLPHAQAVIDQHQRLKNSALSLTDNTPKEITIALDEGISFKLISGIISNLQNEFPNITLEFLSASSPDIIDMLKNEKALTGIVFSELTIPSYLDFECIGSIKFDLYVAKSHPLANQVCKNIDSLRLHRQLLIRSRNTQSSSFQLKLSPNVWYADNYFLLLELALQGNGWCLLPNHIANESVESGQLVKLPLEFEEMGWQANVDVVQHQRHSNLAVFKVLRLLLRNLL
soluble on expression in E. coli: not soluble

MGSDKIHHHHHHMRVIELEDLDHIREAIVILKGLEVEGANKPGEKLGFKKGKNLMSIFTCKEMDRFIRDVQERKNFSLETNAYFFELHSKRFVSLRYLPKKSLLFVNDLTEERTLSEAKLDFVTAVSHELFTPLSASKANVFLLKDIENDPEKLEILGKVERSLDRMETIIRQLKVLTMIQLRLYELKMEHIPVEEVVHMVLEELREKIESKKIKVNVFVDVETIETDRFVFHTILKNLVSNAVKYSYPDSVVEISITGERLSVKDQGIGIKEEEKSRIFERFYRGSEALKMAPGSGLGLSIVKHLCDTIGYRLEVNSQWLVGSEFIVHFK
soluble on expression in E. coli: not soluble

MGHHHHHHSHMSWLKEVIGTEKAVIAMCHLRALPGDPGFDTRKGMNWVIDRAHDDLMALQNGGVDAVMFSNEFSLPYLTKVRPETTAAMARIIGQLMSEIRVPFGVNVLWDPVASFDLAMATDAKFIREIFTGAYASDFGVWDTNVGETIRHQHRIGAGHVKTLFNIVPEAAVYLGNRDVCSIAKSTVFNNNPDALCVSGLTAGARTDSAILKRVKETVPDTVVLANTGVCLENVEEQLCIADGCVTATTFKKDGVFANFVDQARVAKFMEKVRHIRQ
soluble on expression in E. coli: soluble

KMERKNVWHHRKKEEIEAFSKEYMEFMSKAKTERMTVKEIKRILDESGFVPLEDFAGDPMNMTVYAVNRGKAIAAFRVVDDLKRGLNLVVAHIDSPRLDFKPNPLIEDEQIALFKTHYYGGIKKYHWLSIPLEIHGVLFKNDGTEIEIHIGDKPEDPVFTIPDLLPHLDKEDAKISEKFKGENLMLIAGTIPLSGEEKEAVKTNVLKILNEMYGITEEDFVSGEIEVVPAFSPREVGMDRSLIGAYGQDDRICAYTALRALLSANPEKSIGVIFFDKEEIGSDGNTGAKARFYLKALRQILKMQGAKDSEFVLDEVLENTSVISGDVCAAVNPPYKDVHDLHNAPKLGYGVALVKYTGARGKYSTNDAHAEFVARVRKVLNEQGVIWQVATLGKVDQGGGGTIAKFFAERGSDVIDMGPALLGMHSPFEISSKADLFETYVAYRSLMEKL
soluble on expression in E. coli: soluble

MGSDKIHHHHHHMLFNTRPKEDRKDLYDREKEIEMIKDSIARGEWIAVLGMRRIGKTSVVNVAVKEIGAIKVSINLMRIHDSRKKQYPKHVLISLLIEEINEAIKNYTILGKVAKLLSNILGVEEIQTNKVRAKLTKIRGTDITYIIREMDSIARDNKKQLVIILDEAQELAKVNGLDFPSIFHDVYDNCKNTVIIFTGSMVKLIEKTLKNIEYTEPFFGRYIRKITLGRFLPEQSREFLEKGFEEEGIKVDESVIDEAVKRLDGIPGWLTLFGSEYTFSAKMGTKPRIDEIIEKAINEVRNEARNFIFSTQSPLRYSAVILALDRLGGKGELHEIVKVSSTILNENIPEPRVYEILNRLVEFDFIERREDNEYYLHQDEPNRKGLILAAKDSPASYSI
soluble on expression in E. coli: not soluble

MSLTASIPINSNLIVHVGNNVRIDAFGLKARLTGDLNVVQDKQGLGLNGQINIPEGRFHAYGQDLIVRKGELLFSGPPDQPYLNIEAIRNPDATEDDVIAGVRVTGLADEPKAEIFSDPAMSQQAALSYLLRGQGLESDQSDSAAMTSMLIGLGVAQSGQIVGKIGETFGVSNLALDTQGVGDSSQVVVSGYVLPGLQVKYGVGIFDSIATLTLRYRLMPKLYLEAVSGVDQALDLLYQFEFEGHHHHHH
soluble on expression in E. coli: not soluble

MTQRLHRDRHDRGVRGPLFSSALPRYCSRRQRFDATVLEAYAPLQQRYAAQLTHLDIAVDTVPRMRLGFDPALVPDEVVADGPVPLGRVIPAGVDSSGHPTRARLVLFRMAIEQRVVSAQERRELVTTVLTALVANYLNISPTDIDPNFQW
soluble on expression in E. coli: not soluble

MSLDSKIDILIVVNMFLTGFDSKVLNTLYVDKNLMYHDLIQAYSRTNRVEKESKPFGKIVNYRDLKKETDDALRVFSQTNDTDTILMRSYEEYKKEFMDAYRELKMIVPTPHMVDDIQDEEELKRFVEAYRLLAKIILRLKAFDEFEFTIDEIGMDEQENEDYKSKYLAVYDQVKRATAEKNKVSILNDIDFEIEMMRNDTINVNYIMNILRQIDLEDKAEQREGHHHHHH
soluble on expression in E. coli: soluble

MSLMKRQFEDVTRIVIKIGTSSLVLPTGKINLEKIDQLAFVISSLMNKGKEVILVSSGAMGFGLDILKMEKRPTNLAKQQAVSSVGQVAMMSLYSQIFAYYQTNVSQILLTRDVVVFPESLANVTNAFESLISLGIVPIVNENDAVSVDEMDHATKFGDNDRLSAVVAGITKADLLIMLSDIDGLFDKNPTIYEDAQLRSHVANITQEIIASAGGAGSKFGTGGMLSKVQSAQMVFENKGQMVLMNGANPRDILRVLEGQPLGTWFKQIEEVRHDEGHHHHHH
soluble on expression in E. coli: soluble

MGSSHHHHHHSSGLVPRGSHMSLYREVDAFRVDDERRRVPEKVVNDIEVRIRINGGMEQRFTASPQALEEFATGYLLGEGLVDSVDDIVSIEISDNIIDAEIESGDLDIRRELVMGSDCFGGWRQRVEMVGPVDSDLRVRADDIFLAFKRMVKSAVVWRMTGGTHVAALVTGDEFRVFEDVSRHVAVDKVIGSGAMDGVNFRESFIVYSGRMPADMLIKVVRAGVPIIASNAAPTSSGYDAAQRTGLTMLGFVRGKRFNIYSHPERII
soluble on expression in E. coli: soluble

MGILKSLFTLGKSFISQAEESIEETQGVRMLEQHIRDAKAELDKAGKSRVDLLARVKLSHDKLKDLRERKASLEARALEALSKNVNPSLINEVAEEIARLENLITAEEQVLSNLEVSRDGVEKAVTATAQRIAQFEQQMEVVKATEAMQRAQQAVTTSTVGASSSVSTAAESLKRLQTRQAERQARLDAAAQLEKVADGRDLDEKLAEAGIGGSNKSSAQDVLARLQRQQGELEHHHHHH
soluble on expression in E. coli: not soluble

MRSKLNQYNQKRNFTRTLEPEGITEMPQEGLRFVVQHHLARRDHYDLRLEWDGAMLSWAVPKGPSYNTWDKRLAVQVEDHPLEYRHFEGTIPKGEYGGGVVMLWDEGFWEPYVDVDGGLHEGMLKFVLKGRRLKGRWALVRMKGKAGDKKDNWLLLKEKDDYVQTADGISQFTTSLEHHHHHH
soluble on expression in E. coli: not soluble

MSLAKEPLIRVLLIEDDPMVQEVNRMFVEKLSGFTIVGTTATGEEGMVKTRELQPDLILLDIFMPKQDGLSFIKQIREQYIDVDIIAVTAANDTKTIKTLLRYGVMDYLVKPFTFERLKAALTQYEEMFRKMQKEAELSQDSLDEMIKQKQAQANMDDLPKGLHAHTLQQVIERLEELDEPKSAEEIGRDVGLARVTVRRYLNYLESVGQVEMDLTYGSIGRPIQTYKLKEGHHHHHH
soluble on expression in E. coli: soluble

MSLKYNNCVIGSRSVFPPRGLQETNIGIVHISDINHYYTLNLSRKIENHLSKLTGAGTGDSVEDSMFLATMEAYERLANSIPVSQQVIASQEELGDLAVPLSDFPKMNQSETSSNGIEKKYLRWSESYNLTDQSRCYIPQVYINLYTHFNYNGEGLTHPISTGCAIHQDYTRAVINGIYEVIERDGIALFWLLKRPLKKLDKQEFIDDLEIFSSPFLGKTTLYDASTINGVYTFCLRAETHFSESIRNVVMFSSNTCPKEAISKLKKELISVIYSLANGIEKQSNLLKQDPMSFYHVDEGALYMAHPSKAYAFEFLNNSSKGSIPTNEIQFSSYGEELRYLIKKLEGLGHKVYVTNLSNRECEENQLKAVKVTIPSLQPISFVHSAREGHHHHHH
soluble on expression in E. coli: not soluble

MGSDKIHHHHHHMKSNLFMKRKLEIGLSLLIGTSVFGGCNNDLAPIRQSQTFPPNLNAPTVFESFSPDSGGVKTQLIIRGQNFGTDTAYLKVTVNNKRAAIVGVADDVIYAIVPARADTGYVRLFVGKDDNVEEYASQTKFIYQFKRNVTTLMGRQGQSGRDDGPYAECKLQRPWFALADKDGALFFIDEGRGQNKNGALRRAQEGWVETLVQNSSGPFQSPTCLAFNPKQDTLYISNMSYGSDIKTSFNILYVTREGGFMDVKGLCKFEKAETQGLAVHPQTGEIFFCNKSGGYIYRFNGPDYEDYEPLFQINRADKIDTRMVFNPEGTALFVVVCNRHCIYKVPYNALTHTFGEPELFAGGWDESGYVNGSGVTARFDNPRQPAFDQDGNMFVPEYGRHTIRKITPTGEVSLYAGLPGQAGFTDGLPEKARFNKPECVTVYLDNSLYVADRDNHLIRRVTVE
soluble on expression in E. coli: not soluble
